Source: patent US11504441B2, “Radiolabeled compounds targeting the prostate-specific membrane antigen” (PROVINCIAL HEALTH SERVICES AUTHORITY, priority 2019, dated 2022)

Test: in vivo
Set-up: species or system mice
Conditions: male, NODSCID 1L2RγKO, mouse, iv, total radioactivity

## O=C(O)CCC[C@H](NC(=O)N[C@@H](CCCCNC(=O)[C@H](Cc1c2ccccc2cc2ccccc12)NC(=O)[C@H]1CC[C@H](CNC(=O)CN2CCN(CC(=O)O)CCN(CC(=O)O)CCN(CC(=O)O)CC2)CC1)C(=O)O)C(=O)O [177Lu-HTK03149, metal not drawn]
Adrenal glands uptake
  tissue uptake at 1 h: 0.35 ± 0.07 %ID/g
  tissue uptake at 4 h: 0.08 ± 0.01 %ID/g
  tissue uptake at 24 h: 0.07 ± 0.02 %ID/g
  tissue uptake at 72 h: 0.12 ± 0.05 %ID/g
  tissue uptake at 120 h: 0.02 ± 0.03 %ID/g
Blood uptake
  tissue uptake at 1 h: 0.88 ± 0.07 %ID/g
  tissue uptake at 4 h: 0.17 ± 0.03 %ID/g
  tissue uptake at 24 h: 0.12 ± 0.01 %ID/g
  tissue uptake at 72 h: 0.07 ± 0.02 %ID/g
  tissue uptake at 120 h: 0.02 ± 0.01 %ID/g
Bone uptake
  tissue uptake at 1 h: 0.07 ± 0.02 %ID/g
  tissue uptake at 4 h: 0.02 ± 0.01 %ID/g
  tissue uptake at 24 h: 0.03 %ID/g
  tissue uptake at 72 h: 0.03 ± 0.01 %ID/g
  tissue uptake at 120 h: 0.01 ± 0.01 %ID/g
Brain uptake
  tissue uptake at 1 h: 0.02 %ID/g
  tissue uptake at 4 h: 0.01 %ID/g
  tissue uptake at 24 h: 0.01 %ID/g
Fat uptake
  tissue uptake at 1 h: 0.14 ± 0.05 %ID/g
  tissue uptake at 4 h: 0.02 %ID/g
  tissue uptake at 24 h: 0.02 %ID/g
  tissue uptake at 72 h: 0.04 ± 0.04 %ID/g
  tissue uptake at 120 h: 0.01 ± 0.01 %ID/g
Heart uptake
  tissue uptake at 1 h: 0.28 ± 0.04 %ID/g
  tissue uptake at 4 h: 0.07 ± 0.01 %ID/g
  tissue uptake at 24 h: 0.06 %ID/g
  tissue uptake at 72 h: 0.06 ± 0.01 %ID/g
  tissue uptake at 120 h: 0.03 ± 0.01 %ID/g
Intestine uptake
  tissue uptake at 1 h: 0.27 ± 0.06 %ID/g
  tissue uptake at 4 h: 0.19 ± 0.07 %ID/g
  tissue uptake at 24 h: 0.09 ± 0.05 %ID/g
  tissue uptake at 72 h: 0.09 ± 0.03 %ID/g
  tissue uptake at 120 h: 0.31 ± 0.48 %ID/g
Kidneys uptake
  tissue uptake at 1 h: 7.67 ± 1.35 %ID/g
  tissue uptake at 4 h: 1.67 ± 0.38 %ID/g
  tissue uptake at 24 h: 0.6 ± 0.11 %ID/g
  tissue uptake at 72 h: 0.68 ± 0.39 %ID/g
  tissue uptake at 120 h: 0.28 ± 0.06 %ID/g
Lacrimal uptake
  tissue uptake at 1 h: 0.02 ± 0.01 %ID/g
  tissue uptake at 4 h: 0.03 ± 0.01 %ID/g
  tissue uptake at 72 h: 0.01 ± 0.01 %ID/g
Liver uptake
  tissue uptake at 1 h: 0.26 ± 0.03 %ID/g
  tissue uptake at 4 h: 0.11 ± 0.01 %ID/g
  tissue uptake at 24 h: 0.1 ± 0.01 %ID/g
  tissue uptake at 72 h: 0.13 ± 0.03 %ID/g
  tissue uptake at 120 h: 0.08 ± 0.04 %ID/g
Lungs uptake
  tissue uptake at 1 h: 0.72 ± 0.06 %ID/g
  tissue uptake at 4 h: 0.17 ± 0.01 %ID/g
  tissue uptake at 24 h: 0.12 ± 0.01 %ID/g
  tissue uptake at 72 h: 0.11 ± 0.02 %ID/g
  tissue uptake at 120 h: 0.09 ± 0.08 %ID/g
Muscle uptake
  tissue uptake at 1 h: 0.18 ± 0.14 %ID/g
  tissue uptake at 4 h: 0.02 ± 0.01 %ID/g
  tissue uptake at 24 h: 0.02 %ID/g
  tissue uptake at 72 h: 0.02 %ID/g
  tissue uptake at 120 h: 0.01 %ID/g
Pancreas uptake
  tissue uptake at 1 h: 0.17 ± 0.03 %ID/g
  tissue uptake at 4 h: 0.03 %ID/g
  tissue uptake at 24 h: 0.03 %ID/g
  tissue uptake at 72 h: 0.03 %ID/g
  tissue uptake at 120 h: 0.02 ± 0.01 %ID/g
Salivary uptake
  tissue uptake at 1 h: 0.23 ± 0.06 %ID/g
  tissue uptake at 4 h: 0.05 ± 0.01 %ID/g
  tissue uptake at 24 h: 0.05 ± 0.01 %ID/g
  tissue uptake at 72 h: 0.05 ± 0.02 %ID/g
  tissue uptake at 120 h: 0.03 ± 0.01 %ID/g
Seminal uptake
  tissue uptake at 1 h: 0.38 ± 0.47 %ID/g
  tissue uptake at 4 h: 0.04 ± 0.03 %ID/g
  tissue uptake at 24 h: 0.02 %ID/g
  tissue uptake at 72 h: 0.03 ± 0.01 %ID/g
  tissue uptake at 120 h: 0.01 %ID/g
Spleen uptake
  tissue uptake at 1 h: 0.26 ± 0.05 %ID/g
  tissue uptake at 4 h: 0.09 ± 0.02 %ID/g
  tissue uptake at 24 h: 0.09 ± 0.01 %ID/g
  tissue uptake at 72 h: 0.14 ± 0.06 %ID/g
  tissue uptake at 120 h: 0.13 ± 0.08 %ID/g
Stomach uptake
  tissue uptake at 1 h: 0.1 ± 0.02 %ID/g
  tissue uptake at 4 h: 0.05 ± 0.02 %ID/g
  tissue uptake at 24 h: 0.13 ± 0.11 %ID/g
  tissue uptake at 72 h: 0.14 ± 0.1 %ID/g
  tissue uptake at 120 h: 0.24 ± 0.31 %ID/g
Tail uptake
  tissue uptake at 1 h: 0.52 ± 0.13 %ID/g
  tissue uptake at 4 h: 0.2 ± 0.14 %ID/g
  tissue uptake at 24 h: 0.14 ± 0.14 %ID/g
  tissue uptake at 72 h: 0.08 ± 0.02 %ID/g
  tissue uptake at 120 h: 0.04 ± 0.01 %ID/g
Testes uptake
  tissue uptake at 1 h: 0.26 ± 0.02 %ID/g
  tissue uptake at 4 h: 0.06 %ID/g
  tissue uptake at 24 h: 0.05 %ID/g
  tissue uptake at 72 h: 0.05 ± 0.01 %ID/g
  tissue uptake at 120 h: 0.03 ± 0.01 %ID/g
Thyroid uptake
  tissue uptake at 1 h: 0.27 ± 0.02 %ID/g
  tissue uptake at 4 h: 0.07 ± 0.01 %ID/g
  tissue uptake at 24 h: 0.06 %ID/g
  tissue uptake at 72 h: 0.08 ± 0.01 %ID/g
  tissue uptake at 120 h: 0.04 ± 0.01 %ID/g
Tumor uptake
  tissue uptake at 1 h: 14 ± 2.16 %ID/g
  tissue uptake at 4 h: 20.9 ± 2.99 %ID/g
  tissue uptake at 24 h: 13.8 ± 2.88 %ID/g
  tissue uptake at 72 h: 17.1 ± 4.7 %ID/g
  tissue uptake at 120 h: 16.4 ± 11 %ID/g
